Results from patent US20240294622A1 (SUZHOU TRANSCENTA THERAPEUTICS, published 2024).

T1: HGREM1-His (ACRO) (human, UniProt O60565 25-184)
T1 construct: Lys25-Asp184 of NP_037504 with C-terminal polyhistidine tag (ACRO GR1-H52H3); they are put here; also called hGREM1 (ACRO); human gremlin (ACRO)
T1 sequence: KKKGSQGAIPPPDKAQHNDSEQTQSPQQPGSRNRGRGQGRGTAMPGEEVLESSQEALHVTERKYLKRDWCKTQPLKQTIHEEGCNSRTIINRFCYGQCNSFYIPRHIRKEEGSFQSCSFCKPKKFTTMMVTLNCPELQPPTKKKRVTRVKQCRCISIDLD

T2: Mouse Gremlin-His (R&D) (mouse, UniProt O70326 25-184)
T2 construct: Lys25-Asp184 with 10xHis, R&D 956-GR; also called mouse gremlin (R&D); mGREM1
T2 sequence: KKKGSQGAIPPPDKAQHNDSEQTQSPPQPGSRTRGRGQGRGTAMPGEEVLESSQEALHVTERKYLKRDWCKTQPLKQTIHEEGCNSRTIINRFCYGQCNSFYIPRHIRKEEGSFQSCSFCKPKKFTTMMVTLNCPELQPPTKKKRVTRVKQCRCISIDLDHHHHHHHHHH


Experiments:
HGREM1-His (ACRO) [1] = target: T1, HGREM1-His (ACRO); experiment: ELISA, coated hGREM1 (ACRO)
Method: (§1) Clear polystyrene plates (BEAVER) were coated with 100 μl/well of a […] hGREM1 (ACRO) and mouse gremlin (R&D) in high pH coating buffer overnight at 4° C. Then the plates were washed once on an automatic plate washer using PBS+0.1% Tween 20 (Sigma). 100 μl of block solution consisting of PBS+1% BSA+1% normal goat serum+0.5% Tween 20 (Sigma) was added to each well and incubated at room temperature for 2 hours. Then 100 μl of antibodies in antibody dilution buffer containing PBS+1% BSA+1% normal goat serum+0.01% Tween 20 starting from 2 μg/ml and then serial dilutions were added to each well of the plate and incubated for 1 hours at room temperature. Afterward the plates were washed three times with 200 μl of PBS+0.1% Tween20 followed by adding 100 μl/well 1:10000 Goat anti mouse IgG-HRP (abcam), and incubate for 1 hour at room temperature. They were then washed 3× with PBS+0.1% Tween20. Finally, 100 µl/well of TMB (Pierce) was added to each well and after several minutes add 50 μl of stop solution to each well. The plates were read on a Multiscan FC microplate reader (Thermo Scientific) at […].

Mouse Gremlin-His (R&D) = target: T2, Mouse Gremlin-His (R&D); experiment: ELISA on coated Mouse Gremlin-his, anti-mouse IgG-HRP
Method: as §1

HGREM1-His (ACRO) [2] = target: T1, HGREM1-His (ACRO); experiment: competition ELISA, Gremlin-his binding to coated BMP7
HGREM1-His (ACRO) [3] = target: T1, HGREM1-His (ACRO); experiment: ELISA on coated Gremlin-his; unit from the axis Ab(nM)
Method: Clear polystyrene plates (BEAVER) were coated with 100 μl/well of a 0.5 μg/ml human gremlin (ACRO) and DAN (Sinobiological) in high pH coating buffer overnight at 4° C. Then the plates were washed once on an automatic plate washer using PBS+0.1% Tween 20 (Sigma). 100 μl of block solution consisting of PBS+1% BSA+1% normal goat serum+0.5% Tween 20 (Sigma) was added to each well and incubated at room temperature for 2 hours. Then 100 ul of antibodies (hybridoma or chimeric antibody 36F5, chimeric antibody 67G11, chimeric antibody 42B9) in antibody dilution buffer containing PBS+1% BSA+1% normal goat serum+0.01% Tween 20 starting from 2 μg/ml (13.33 nM) and then 4 fold serial dilution were added to each well of the plate and incubated for 1 hours at room temperature. Afterward the plates were washed three times with 200 ul of PBS+0.1% Tween20 followed by adding 100 μl/well 1:10000 Goat anti mouse IgG-HRP or mouse anti-human IgG-HRP (abcam), and incubate for 1 hour at room temperature. They were then washed 3× with PBS+0.1% Tween20. Finally, 100 μl/well of TMB (InnoReagents) was added to each well and after 2 minutes add 50 ul of stop solution to each well. The plates were read on a Multiscan FC microplate reader (Thermo Scientific) at 450 nm.

HGREM1-His (ACRO) [4] = target: T1, HGREM1-His (ACRO); experiment: blocking ELISA, Human Gremlin-1 binding to BMP2; column OD450
Method: (§2) In addition, the ability of serial dilutions of antibodies provided herein to block Gremlin binding to human BMP2/4/7 was also examined via ELISA. Plates were coated with recombinant human BMP2/4/7 (0.5 μg/ml) overnight and then serial dilutions of antibodies were incubated with 1 μg/ml of human Gremlin-his modified for 1 h at RT before this complex was added to coated plates and allowed to incubate for an additional hour at RT. The plates were then washed and added with anti-his HRP (GenScript). Plates were then developed with a TMB solution and stopped by adding stop solution. The plates were read on a plate reader at 450 nm. […] The chimeric anti-gremlin 1 antibodies (69H5-chi) and chimeric anti-gremlin 1 antibodies (22F1-chi) also can inhibit the binding of gremlin to BMP2 and BMP4 (see, FIG. 3E and FIG. 3F). The chimeric anti-gremlin 1 antibodies (56C11-chi) can inhibit the binding of gremlin to BMP2 (see, FIG. 3E).

HGREM1-His (ACRO) [5] = target: T1, HGREM1-His (ACRO); experiment: blocking ELISA, Human Gremlin-1 binding to BMP7; column OD450
Method: as §2

HGREM1-His (ACRO) [6] = target: T1, HGREM1-His (ACRO); experiment: blocking ELISA, Human Gremlin-1 binding to BMP2; column Percentage
Method: as §2

HGREM1-His (ACRO) [7] = target: T1, HGREM1-His (ACRO); experiment: blocking ELISA, Human Gremlin-1 binding to BMP4; column Percentage
Method: as §2

HGREM1-His (ACRO) [8] = target: T1, HGREM1-His (ACRO); experiment: blocking ELISA, Human Gremlin-1 binding to BMP7; column Percentage
Method: as §2

Row | EC50 (HGREM1-His (ACRO) [1]) [mg/L] | binding result (Mouse Gremlin-His (R&D)) | maximal blocking percentage (HGREM1-His (ACRO) [2]) [%] | EC50 (HGREM1-His (ACRO) [3]) [nM] | IC50 (HGREM1-His (ACRO) [4]) [mg/L] | IC50 (HGREM1-His (ACRO) [5]) [mg/L] | IC50 (HGREM1-His (ACRO) [6]) [mg/L] | IC50 (HGREM1-His (ACRO) [7]) [mg/L] | IC50 (HGREM1-His (ACRO) [8]) [mg/L] | Binder
1 | 0.0136 | no binding |  |  |  |  |  |  |  | 14E3 (antibody, V domains shown, mouse hybridoma antibody; also called hybridoma 14E3; anti-gremlin1 antibody 14E3) VH: QIQLVQSGPELKKPGETVKISCKTSGSTFTTYGMAWMKQAPGKGLTWMGWINTLSGEPTYADDFKGRFAFSLKTSANTAYLQINNLKNEDAATYFCAREPMDYWGQGTSVIVSS VL: not shown
2 | 0.00587 |  | ≥ 50 | 0.0309 | 0.604 | 0.683 | 0.604 | 0.512 | 0.683 | 36F5 (antibody, V domains shown, mouse hybridoma antibody; also called hybridoma 36F5) VH: QVQLQQSGAELARPGASVKLSCKASGYSFTSSGIGWVKQRSGQGLEWIGEIYPRSGNTYNNEKFKGKATLTADKSSSTVYMELRSLTSEDSAVYFCVREAYSHHYYAMDYWGQGTSVTVFS VL: DVLMTQTPLSLPVSLGGQASISCRSSQSLLHSNGNTYLEWYLQKPGQSPKLLIYKVSNRFSGVPDRLSGSGSGTDFTLKISRVEAEDLGVYYCFQGSHVPFTFGSGTKLEIN
